From patent US7629135B2, “Toll-like receptor agonists and antagonists and methods of use thereof” (The Board of Trustees of the University of Illinois, priority 2006, dated 2009)

Assays:
[1] = test system: mouse bone marrow derived macrophages (BMDM); assay: G-CSF secretion in mouse BMDM (ELISA); type: cell-based; conditions: for secreted mouse G-CSF: mouse BMDM
Experimental: SAA induces G-CSF expression in monocytes and macrophages: To determine whether SAA plays a role in neutrophilia, the ability of SAA to stimulate G-CSF expression was investigated. Human peripheral blood monocytes (PBMC) were incubated with SAA, and the concentration of secreted G-CSF in the culture medium was determined at various time points after stimulation. The concentration of SAA used in this experiment (1 μM) was well within its physiological range (0.08 μM to 80 μM). […] Since subsequent studies used mice for measurement of G-CSF secretion and neutrophilia, SAA-induced G-CSF expression in mouse bone marrow derived macrophages (BMDM) was determined, of which 98% were F4/80^+ CD14^+ based on flow cytometry analysis. […] The basal level of G-CSF remained stable at approximately 42 pg/ml/10^6 cells over the entire course of incubation.
It was next determined whether induction of G-CSF expression was a primary function of SAA or resulted from contaminating LPS in the SAA preparation. The LPS concentration in the recombinant SAA preparation was ≦0.1 ng/μg protein, translating into ≦1.14 ng/ml LPS in a typical experiment with 1 μM SAA. LPS at this or 10-fold higher concentrations was tested for its effect on the expression of G-CSF. […] Given that most proteins are heat labile while LPS is heat resistant, the ability of heat-treated SAA (1 μM) and LPS (1 μg/ml) to stimulate G-CSF secretion in mouse BMDM was examined. After boiling for 25 min, LPS retained its ability to induce G-CSF production by ˜83%. […] In parallel experiments, polymyxin B, an amphiphilic cyclic polycationic peptide that specifically binds to LPS and blocks the cytokine-inducing effect of LPS (Stokes et al., 1989), was used to treat SAA or LPS prior to incubation with BMDM. […] Under the same experimental conditions, polymyxin B reduced LPS-stimulated G-CSF secretion by more than 70%.
It was previously shown that FPRL1 is involved in SAA-induced IL-8 production in human neutrophils (He et al., 2003). It has also been shown that SAA binds to FPRL1 and stimulates the production of matrix metalloproteinase (O'Hara et al., 2004). […] A role of TLR2 in SAA-stimulated G-CSF expression was examined.
Cell preparation and culture: Human peripheral blood monocytes were prepared from fresh, heparinized venous blood by Ficoll-Hypaque density-gradient centrifugation. Blood drawing followed a protocol approved by the Institutional Review Board at the University of Illinois at Chicago. Purified monocytes (>93% CD14^+ by flow cytometry) were kept in nonadherent condition in RPMI 1640 containing 0.5% FBS and maintained at 37° C. Mouse macrophages were differentiated from bone marrow cells. Mouse bone marrow cells were aspirated from the femurs of 8-12-week-old mice and cultured at 37° C. in 5% CO2 in RPMI 1640 medium containing 10% FBS, 15% L-cell conditional medium, 10 mM HEPES, 2 mM L-glutamine, 100 IU/ml penicillin, and 50 μg/ml streptomycin. The medium was changed every three days. Macrophages (about 98% F4/80+ by flow cytometry) were obtained after 7 days of culture. The mouse macrophage cell line RAW264.7 cells were maintained in DMEM medium supplemented with 10% FBS, 10 mM HEPES, 2 mM L-glutamine, 100 IU/ml penicillin, and 50 μg/ml streptomycin. TLR2-HeLa cells were generated by transfection of HeLa cell with the expression construct pUNO-hTLR2 (InvivoGen). Stable transfectants were selected with Blasticidin at 20 μg/ml for 2 weeks. Mock-transfected HeLa cells were generated similarly, with a pUNO empty vector. Cells were maintained in DMEM supplemented with 10% heat-inactivated FBS, 2 mM L-glutamine, 100 IU/ml penicillin, and 50 μg/ml streptomycin. Expression of TLR2 was confirmed using an anti-TLR2 antibody (eBioscience) and FTTC-conjugated anti-mouse antibody, on a FACSCalibur flow cytometer (Becton Dickinson). FIGS. 12 and 13 are plasmid maps of pUNO-hTLR2 and pNF-κB-Luc, respectively. […]

[2] = test system: mouse macrophage cell line RAW264.7; assay: G-CSF secretion in RAW264.7 cells (ELISA); type: cell-based; conditions: SAA 1 μM, time course
[3] = test system: C57BL/6 mice; assay: SAA-induced neutrophilia in mice; type: in vivo, mouse
Experimental: SAA stimulates neutrophilia through G-CSF: To investigate whether SAA-induced G-CSF secretion contributes to neutrophilia, in vivo studies were conducted with daily administration of SAA in mice. C57BL/6 mice were injected subcutaneously (s.c.) with a daily dose of 120 μg SAA/kg body weight (˜3 μg of SAA each mouse) for 7 consecutive days. At different time points after the injection was initiated, blood neutrophil numbers were determined and the results were compared to neutrophil numbers prior to SAA administration. […] To establish a causal relationship between SAA-induced G-CSF production and neutrophilia in mice, wild-type C57BL/6 mice wre compared with csf3^−/− mice for changes in neutrophil count.
SAA-induced neutrophilia: For analysis of SAA-induced neutrophil increase, SAA was injected subcutaneously into both G-CSF deficient (csf3^−/−) (n=5) and csf3^+/+ (n=5), age- and sex-matched littermates (8-9 weeks, male), at doses of 120 μg/kg/d in 200 μl PBS. SAA was administered daily for 7 consecutive days (168 h). Blood samples were collected before and at 48, 120, and 168 h after the initial SAA injection. Age and sex-matched mice of both tlr2^−/− (n=7) and C57BL/6 (n=7) were also used for this experiment. Blood was collected by eye puncture using heparinized capillaries and placed into EDTA-treated tubes. Total white blood cell (WBC) count and WBC differential count were determined using a Hemavet 950FS multispecies hematology analyzer (Drew Scientific).

B1: SAA: Recombinant human SAA purchased from PeproTech; major acute-phase protein of 104 amino acids (protein, UniProt P0DJI8 19-122, looked up)
Serum amyloid A-1 protein: RSFFSFLGEAFDGARDMWRAYSDMREANYIGSDKYFHARGNYDAAKRGPGGAWAAEVITDARENIQRFFGHGAEDSLADQAANEWGRSGKDPNHFRPAGLPEKY
For B1, the “maximal G-CSF production” value ([1]; BMDM, SAA, experiments of FIG. 4) was 446 pg/ml/10^6 cells, the “ability to stimulate G-CSF secretion after heat treatment” value ([1]; SAA 1 μM, boiled 25 min, BMDM, 16 h) was “could no longer stimulate G-CSF secretion” and the “secreted mouse G-CSF” value ([1]; SAA 1 μM, after 8 h) was 155 pg/ml/10^6 cells. For the same molecule, the “secreted mouse G-CSF” value ([1]; SAA 1 μM, after 24 h) was 965 pg/ml/10^6 cells, the “ability to induce G-CSF protein secretion in tlr2−/− BMDM” value ([1]; tlr2−/− vs wild-type BMDM, SAA 1 μM) was “drastically reduced” and the G-CSF production [2] was “time-dependent production of G-CSF”. The “peripheral blood neutrophil numbers” value ([3]; C57BL/6 mice, SAA 120 μg/kg s.c. daily for 7 days, vs PBS, from 48 h) was “significant rise of neutrophil numbers”, the “SAA-stimulated increase in peripheral blood neutrophils in tlr2−/− mice vs wild-type” value ([3]; SAA s.c. up to 7 days) was “significantly lower” and the “peripheral blood neutrophil count response in csf3−/− mice vs wild-type” value ([3]; csf3−/− mice, SAA 120 μg/kg/d s.c., 48, 120 and 168 h) was “significantly reduced response”.
